# Several values for one entry are separate records, joined by “and”; a condition that tells them apart may be missing. Equal entries are not always repeated. Where no end group is shown, it is not given here.
# Tests used:
# Kv1.1 = molecular target: T1, Kv1.1 (Rattus norvegicus, UniProt P10499); assay: Two electrode voltage clamp, Xenopus oocytes, Kv1.1; type: cell-based
# T1 construct: expressed in transfected cells; host or cells: Xenopus laevis oocytes (cRNA injection)
# Description: (§1) To examine the effect of mokatoxin-1 on activity of potassium ion channels, cDNA encoding Rattus Kv1.1 (NCBI accession number NM_173095), Rattus Kv1.2 (NM_012970), Homo Kv1.3 (NM_002232), or Mus BK (NM_010610) were subcloned into oocyte expression vectors based on PCR3.1 and pGEM. cRNA synthesis was performed with T7 polymerase and the mMessageMachine Kit (Ambion, Austin, Tex.) according to manufacturers instructions. cRNA concentrations were determined spectroscopically. For two electrode voltage clamp recordings oocytes were extracted from Xenopus laevis and defoliculated with Collagenase Type 2 (Worthington, Lakewood, N.J.). Oocytes were maintained in ND91 solution containing 2 mM KCl, 91 mM NaCl, 1 mM MgCl2, 1.8 mM CaCl2, and 5 mM HEPES, pH 7.5, supplemented with 1% Penicillin/Streptomycin (Cellgro, Hemdon, Va.) and 0.1% Gentamycin sulfate (Gibco, Grand Island, N.Y.)) at 16° C. Stage V and VI oocytes were injected with 8 pg to 4 ng cRNA, and currents recorded 1 to 4 days later.
# (§2) For dose-response measurements of toxin block of Kv1.1, Kv1,2, or Kv1.3 peak currents were recorded during a 500 ms step to 0 mV from a holding voltage of −100 mV, followed by a 200 ms step to −135 mV every 30 s. To determine the kinetics of toxin block oocytes were held at −100 mV and stepped to the test voltage of 0 mV for 100 ms followed by a 200 ms duration step to −135 mV every 2 s. BK currents were recorded during a 50 ms step to +60 mV from a holding voltage of −80 mV, followed by a 40 ms step to −100 mV every 3 s. The perfusion solution contained 2 mM KCl, 96 mM NaCl, 1 mM MgCl2, 1.8 mM CaCl2, 5 mM HEPES, pH 7.5 and 0.1% fatty acid ultra-free BSA fraction V (Roche Diagnostics Corporation, Indianapolis, Ind.). Data acquisition and processing was performed with an oocyte clamp OC-725B (Warner Instruments Corporation, Hamden, Conn.), pCLAMP (Axon, Sunnyvale, Calif.), IGOR Pro (WaveMetrics, Lake Oswego, Oreg.), and Origin6.1 (OriginLab Corporation, Northampton, Mass.) softwares. The equilibrium dissociation rates (KD) for block of Kv1.1, Kv1.2, and Kv1.3 by mokatoxin-1 were determined by fitting the dose-response data and kon and koff were calculated as described by Goldstein and Miller, 1993 (Biophys J. 1993 65 (4):1613-1619).
# Kv1.2 = molecular target: T2, Kv1.2 (Rattus norvegicus, UniProt P63142); assay: Two electrode voltage clamp, Xenopus oocytes, Kv1.2; type: cell-based
# T2 construct: expressed in transfected cells; host or cells: Xenopus laevis oocytes (cRNA injection)
# T2 sequence (P63142 whole entry): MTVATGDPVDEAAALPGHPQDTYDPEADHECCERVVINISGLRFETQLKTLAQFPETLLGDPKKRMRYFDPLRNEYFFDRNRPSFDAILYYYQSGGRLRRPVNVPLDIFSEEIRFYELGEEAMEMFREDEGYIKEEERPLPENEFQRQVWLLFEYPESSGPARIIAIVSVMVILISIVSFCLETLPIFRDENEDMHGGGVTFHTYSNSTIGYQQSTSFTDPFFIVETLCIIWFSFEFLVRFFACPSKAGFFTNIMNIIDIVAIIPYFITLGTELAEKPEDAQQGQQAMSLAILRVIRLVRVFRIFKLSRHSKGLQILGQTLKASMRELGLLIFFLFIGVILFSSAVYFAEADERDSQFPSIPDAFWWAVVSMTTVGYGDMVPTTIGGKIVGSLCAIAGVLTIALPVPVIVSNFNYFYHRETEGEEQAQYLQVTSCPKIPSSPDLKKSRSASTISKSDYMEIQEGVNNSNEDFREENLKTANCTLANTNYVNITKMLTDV
# Description: as §1, §2
# BK = molecular target: T3, BK (Mus musculus, UniProt Q08460); assay: Two electrode voltage clamp, Xenopus oocytes, BK; type: cell-based
# T3 construct: expressed in transfected cells; host or cells: Xenopus laevis oocytes (cRNA injection)
# T3 sequence (Q08460 whole entry): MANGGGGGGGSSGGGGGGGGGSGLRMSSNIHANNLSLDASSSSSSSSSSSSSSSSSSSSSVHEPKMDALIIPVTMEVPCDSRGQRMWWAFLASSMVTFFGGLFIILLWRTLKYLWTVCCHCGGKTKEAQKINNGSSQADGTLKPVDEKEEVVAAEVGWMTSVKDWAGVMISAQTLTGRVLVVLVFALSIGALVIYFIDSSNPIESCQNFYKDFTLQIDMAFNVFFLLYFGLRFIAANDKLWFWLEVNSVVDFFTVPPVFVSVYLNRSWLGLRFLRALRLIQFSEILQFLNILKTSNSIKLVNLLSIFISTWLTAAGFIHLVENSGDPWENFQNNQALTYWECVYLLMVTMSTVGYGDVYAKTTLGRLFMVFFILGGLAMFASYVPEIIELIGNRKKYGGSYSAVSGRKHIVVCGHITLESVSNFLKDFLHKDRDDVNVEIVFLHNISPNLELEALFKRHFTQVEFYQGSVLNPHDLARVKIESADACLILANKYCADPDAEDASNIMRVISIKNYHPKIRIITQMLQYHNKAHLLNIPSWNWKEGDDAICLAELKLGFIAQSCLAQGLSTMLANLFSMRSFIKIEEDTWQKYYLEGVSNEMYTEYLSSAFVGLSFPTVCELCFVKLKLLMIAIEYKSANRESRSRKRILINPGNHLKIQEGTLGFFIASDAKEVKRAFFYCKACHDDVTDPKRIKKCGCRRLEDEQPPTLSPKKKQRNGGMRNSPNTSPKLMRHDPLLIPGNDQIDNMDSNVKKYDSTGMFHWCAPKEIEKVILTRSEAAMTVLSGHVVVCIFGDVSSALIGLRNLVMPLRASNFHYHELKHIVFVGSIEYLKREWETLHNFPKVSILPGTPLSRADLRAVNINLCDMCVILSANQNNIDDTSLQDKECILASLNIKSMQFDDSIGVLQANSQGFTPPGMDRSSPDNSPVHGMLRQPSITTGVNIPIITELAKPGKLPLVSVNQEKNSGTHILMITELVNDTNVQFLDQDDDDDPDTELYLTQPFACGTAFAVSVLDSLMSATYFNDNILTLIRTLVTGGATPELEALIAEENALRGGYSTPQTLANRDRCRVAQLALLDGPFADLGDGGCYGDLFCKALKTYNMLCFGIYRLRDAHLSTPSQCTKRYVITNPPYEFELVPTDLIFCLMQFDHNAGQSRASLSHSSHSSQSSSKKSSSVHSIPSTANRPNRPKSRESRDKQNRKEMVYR
# Description: as §1, §2
# guinea pig ileum = settings: J Pharmacol Exp Ther. 1999; cited from earlier work
# Kv1.3 = Kv1.3 (Homo sapiens, UniProt P22001); assay: Two electrode voltage clamp, Xenopus oocytes, Kv1.3; type: cell-based; parameters: expressed in transfected cells; host or cells: Xenopus laevis oocytes (cRNA injection)
# Sequence of Kv1.3 (P22001 whole entry): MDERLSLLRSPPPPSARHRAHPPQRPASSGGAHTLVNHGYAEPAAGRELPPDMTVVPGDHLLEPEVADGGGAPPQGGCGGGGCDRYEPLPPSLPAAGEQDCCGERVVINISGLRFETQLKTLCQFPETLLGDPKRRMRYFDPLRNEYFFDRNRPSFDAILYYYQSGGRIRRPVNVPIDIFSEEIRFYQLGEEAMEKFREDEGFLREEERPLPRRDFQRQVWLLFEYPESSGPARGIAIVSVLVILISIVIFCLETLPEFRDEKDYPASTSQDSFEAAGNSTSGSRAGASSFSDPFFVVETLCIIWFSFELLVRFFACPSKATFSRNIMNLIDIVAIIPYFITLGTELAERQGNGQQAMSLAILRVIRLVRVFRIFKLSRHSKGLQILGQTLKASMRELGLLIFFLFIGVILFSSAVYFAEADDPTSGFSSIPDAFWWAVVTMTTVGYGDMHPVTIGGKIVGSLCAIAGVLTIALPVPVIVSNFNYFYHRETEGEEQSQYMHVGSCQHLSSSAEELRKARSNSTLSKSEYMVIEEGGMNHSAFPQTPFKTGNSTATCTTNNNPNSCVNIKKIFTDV
# Text: Thereafter, MK-1 was synthesized. […] The blocking of […] by MK-1 is represented by filled circles; the blocking of Kv1.2 by MK-1 is represented by filled diamonds; and the blocking of Kv1.1 by MK-1 is represented by filled triangles.
# as §1, §2
# [1] = molecular target: KcsA carrying a segment of the Kv1.3 pore loop (KcsA-1.3)
# [2] = molecular target: BK channel, species not stated
# [3] = molecular target: Kv1.1 K+ channel, species not stated
# [4] = molecular target: Kv1.2 K+ channel, species not stated
# [5] = molecular target: Kv1.3 K+ channel, wild-type, species not stated
# [6] = molecular target: Kv1.3 K+ channel, wild-type, species not stated; remark: listed apart in the source
# [7] = molecular target: Kv1.3 K+ channel, wild-type, species not stated; remark: listed apart in the source
# [8] = molecular target: Kv1.3 K+ channel, wild-type, species not stated; remark: listed apart in the source
# [9] = molecular target: Kv1.3 K+ channel, wild-type, species not stated; remark: listed apart in the source
# [10] = molecular target: Kv1.3 K+ channel, wild-type, species not stated; assay: phage panning on COS cells
# [11] = molecular target: Kv1.3 K+ channel, wild-type, species not stated; assay: phage panning on HEK cells
# [12] = molecular target: KcsA carrying a segment of the Kv1.3 pore loop (KcsA-1.3); remark: listed apart in the source
# [13] = molecular target: Kv1.3 K+ channel, wild-type, species not stated; assay: one round of panning of KTX and nonspecific phages on cells expressing Kv1.3
# [14] = molecular target: KcsA carrying a segment of the Kv1.3 pore loop (KcsA-1.3); assay: panning of a 1:99 mixture of Shk and Camel VHH phages on KcsA-1.3, n = 17-20
# [15] = molecular target: Mus BK (mouse big conductance calcium-activated K channel) (Mus) (UniProt Q08460)
# Rattus Kv1.1 (Rattus) = Rattus Kv1.1 (Rattus) (UniProt P10499)
# Rattus Kv1.2 (Rattus) = Rattus Kv1.2 (Rattus) (UniProt P63142)
# human Kv1.3 (Homo) [16] = molecular target: human Kv1.3 (Homo) (UniProt P22001)
# human Kv1.3 (Homo) [17] = molecular target: human Kv1.3 (Homo) (UniProt P22001); remark: listed apart in the source
# [18] = molecular target: KcsA carrying a segment of the Kv1.3 pore loop (KcsA-1.3); remark: listed apart in the source
# [19] = molecular target: KcsA carrying a segment of the Kv1.3 pore loop (KcsA-1.3); assay: library panning on immobilised KcsA-1.3
# Rattus Kv1.1 = Rattus Kv1.1 (Rattus, UniProt P10499); assay: cell-based or functional assay
# [20] = molecular target: Mus BK (mouse big conductance calcium-activated K channel) (Mus, UniProt Q08460); assay: cell-based or functional assay
# Rattus Kv1.2 = Rattus Kv1.2 (Rattus, UniProt P63142); assay: cell-based or functional assay
# human Kv1.3 = human Kv1.3 (Homo, UniProt P22001); assay: cell-based or functional assay
# T1 sequence (P10499 whole entry): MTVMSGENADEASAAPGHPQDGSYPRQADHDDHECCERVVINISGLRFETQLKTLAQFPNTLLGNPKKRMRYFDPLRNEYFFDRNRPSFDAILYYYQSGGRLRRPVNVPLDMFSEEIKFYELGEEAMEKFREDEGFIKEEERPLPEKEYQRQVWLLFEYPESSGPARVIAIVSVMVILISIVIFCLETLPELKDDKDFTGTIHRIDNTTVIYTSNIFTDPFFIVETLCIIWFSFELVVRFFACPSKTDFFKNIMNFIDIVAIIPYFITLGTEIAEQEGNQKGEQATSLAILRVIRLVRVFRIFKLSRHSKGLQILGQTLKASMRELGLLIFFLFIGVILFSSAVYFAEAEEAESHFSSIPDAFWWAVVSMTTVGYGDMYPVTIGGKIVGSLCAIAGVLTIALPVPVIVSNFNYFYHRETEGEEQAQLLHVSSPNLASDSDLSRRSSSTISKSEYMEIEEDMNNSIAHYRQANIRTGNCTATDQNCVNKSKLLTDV
molecule,measurement,setting,value
"CC[C@H](C)[C@@H]1NC(=O)[C@@H]2CSSC[C@@H]3NC(=O)[C@H](CCCCN)NC(=O)[C@H](CCCNC(=N)N)NC(=O)[C@H](CC(N)=O)NC(=O)[C@H](CCSC)NC(=O)[C@H](CSSC[C@H](NC(=O)[C@H](CO)NC(=O)[C@@H](NC(=O)[C@H](CC(N)=O)NC(=O)[C@@H](NC(=O)[C@@H]4CCCN4C(=O)[C@@H](NC(=O)CN)C(C)C)[C@@H](C)CC)C(C)C)C(=O)N[C@@H]([C@@H](C)O)C(=O)NCC(=O)N[C@@H](CO)C(=O)N4CCC[C@H]4C(=O)N[C@@H](CCC(N)=O)C(=O)N2)NC(=O)[C@H](CCCCN)NC(=O)CNC(=O)[C@H](Cc2ccccc2)NC(=O)[C@H](CCCNC(=N)N)NC(=O)[C@H](CCSC)NC(=O)CNC(=O)[C@H](C)NC(=O)[C@H](CC(=O)O)NC(=O)[C@H](CCCCN)NC(=O)[C@H](CSSC[C@@H](C(=O)N[C@H](C(=O)N2CCC[C@H]2C(=O)N[C@@H](CCCCN)C(=O)O)[C@@H](C)O)NC(=O)[C@H](Cc2c[nH]cn2)NC3=O)NC(=O)[C@@H]2CCCN2C(=O)[C@H](CCCCN)NC1=O [AgTX2, agitoxin-2]",IC50,Kv1.1,0.04 nM
same,IC50,Kv1.2,26.8 nM
same,IC50,BK,~1150 nM
same,ileum contractions,guinea pig ileum,contractions
same,IC50,Kv1.3,0.004 nM
Dendroaspis natriuretic peptide (DNP) phage (from UniProt P28374),Output (% Ligands),[1],0%
Kaliotoxin-1 (KTX) (peptide),approximate IC50,[2],5 nM
same,approximate IC50,[3],0.1 nM
same,approximate IC50,[4],1.4 nM
same,approximate IC50,[5],0.5 nM
Kaliotoxin-1 phage (KTX-phage),OUTPUT KTX (%),[6],22% and 30% and 26%
same,Output (% Ligands),[1],100%
same,"% of recovered phage, 2nd round",[7],0%
same,"% of recovered phage, 3rd round",[7],58%
same,"Kv1.3 current, whole-cell patch-clamp",[8],35%
same,% of phage after the 2nd panning,[9],40%
same,fold enrichment (Kv1.3 transfected against vector cells),[10],10 fold
same,fold enrichment (Kv1.3 transfected against vector cells),[11],20 fold
same,Fold Enrichment,[12],3.6 fold
same,Fold Enrichment,[13],4.3 fold and 5.2 fold
Shk phage (sea anemone Stichodactyla helianthus ShK toxin on phage),"% phages, OUTPUT",[14],20%
agitoxin-2 (AgTx2) (peptide),approximate IC50,[2],1150 nM
same,approximate IC50,[3],0.04 nM
same,approximate IC50,[4],26.8 nM
same,approximate IC50,[5],0.004 nM
charybdotoxin (CTX) (peptide),approximate IC50,[2],3 nM
same,approximate IC50,[3],1500 nM
same,approximate IC50,[4],5.6 nM
same,approximate IC50,[5],2.5 nM
fasciculin-2 phage (from UniProt P0C1Z0),Output (% Ligands),[1],0%
mokatoxin-1 (peptide),approximate IC50,[2],> 1000 nM
same,approximate IC50,[3],> 1000 nM
same,approximate IC50,[4],680 nM
same,approximate IC50,[5],3 nM
same,Ki (block of channel current),[15],> 1000 nM
same,Ki (block of channel current),Rattus Kv1.1 (Rattus),> 1000 nM
same,Ki (block of channel current),Rattus Kv1.2 (Rattus),620 nM
same,Koff (block of channel current),Rattus Kv1.2 (Rattus),0.16 [s]^-1
same,Kon (block of channel current),Rattus Kv1.2 (Rattus),260000 [M · s]^-1
same,Ki (block of channel current),human Kv1.3 (Homo) [16],1 nM
same,Koff (block of channel current),human Kv1.3 (Homo) [16],0.059 [s]^-1
same,Kon (block of channel current),human Kv1.3 (Homo) [16],3.6e+07 [M · s]^-1
same,"IL-2, TNF-α and IFN-γ secretion by CD3/CD28 activated human T cells (ELISA)",human Kv1.3 (Homo) [17],50%
mokatoxin-1-phage,% of the phage isolated after two rounds of selection,[18],60%
same,% of phage after the 2nd panning,[9],15%
same,% of the eluted phage after two rounds of panning,[19],16.6%
sarafotoxin S6b phage (from UniProt P13208),Output (% Ligands),[1],0%
ZFTNVSCTTSKECWSVCQRLHNTSRGKCMNKKCRCYS (Z printed as first residue in Table 2) [charybdotoxin (CTX)],Ki (block of channel current),Rattus Kv1.1,> 1000 nM
same,Ki (block of channel current),[20],5 nM
GVEINVKCSGSPQCLKPCKDAGMRFGKCMNRKCHCTPK [Kaliotoxin-1 (KTX)],Ki (block of channel current),Rattus Kv1.1,1.1 nM
same,Koff (block of channel current),Rattus Kv1.1,0.009 [s]^-1
same,Kon (block of channel current),Rattus Kv1.1,3e+07 [M · s]^-1
same,Ki (block of channel current),Rattus Kv1.2,20 nM
same,Koff (block of channel current),Rattus Kv1.2,0.21 [s]^-1
same,Kon (block of channel current),Rattus Kv1.2,1.3e+07 [M · s]^-1
same,Ki (block of channel current),[20],1.6 nM
same,Koff (block of channel current),[20],0.0211 [s]^-1
same,Kon (block of channel current),[20],21000 [M · s]^-1
same,Ki (block of channel current),human Kv1.3,0.008 nM
same,Koff (block of channel current),human Kv1.3,0.007 [s]^-1
same,Kon (block of channel current),human Kv1.3,8e+08 [M · s]^-1
GVPINVSCTGSPQCIKPCKDAGMRFGKCMNRKCHCTPK (ends and bridges not checked; cysteine pairing not given here) [agitoxin-2 (AgTx2)],Ki (block of channel current),Rattus Kv1.1,0.17 nM
same,Ki (block of channel current),Rattus Kv1.2,3.4 nM
same,Ki (block of channel current),human Kv1.3,0.041 nM
